Holding throughout (experiment): BRET (mG protein recruitment) in HEK293 cells
The target in assay [1] is Venus-tagged mGsq. Particulars: highest WNT-5A concentration shown (about log 3 ng/ml); n = 5; mean ± s.e.m.; parent: est. 101; read off a plot.
Assay [2] deals with Venus-tagged mGs. Particulars: highest WNT-5A concentration shown (about log 2.5-3 ng/ml); n = 8; mean ± s.e.m.; parent: est. 100.1; read off a plot.
Assay [3] deals with Venus-tagged mG13. Particulars: n = 6, mean ± s.e.m., read off a plot.
The target in assay [4] is Venus-tagged mGsi. The settings on record: mean ± s.e.m., read off a plot.

Take “SNAP-FZD5-Rluc8 (from UniProt Q13467) R449A”: in assay [1], the response was 103 % of vehicle.
On to “SNAP-FZD7-Rluc8 (from UniProt O75084) R470A”, for which, in assay [2], the response is 102 % of vehicle.
As to hFZD4-Nluc (from UniProt Q9ULV1) K436A, the response in assay [3] (highest WNT-5A concentration shown (about log 3-3.5 ng/ml), parent: est. 105.5) is 106 % of vehicle; in assay [3] (second-highest WNT-5A concentration shown (about log 2.5 ng/ml), parent: est. 100.0), 103 % of vehicle.
On to “mouse SMO-Rluc8 (from UniProt P56726) R455A”, for which, in assay [4] (SAG alone, at the peak of the bell-shaped curve (about log -9.5 M), n = 6, parent: est. 100.9), the response was 102 % of vehicle.
In the case of “SNAP-FZD6-Rluc8 (from UniProt O60353) R416A”, the response in assay [4] (highest WNT-5A concentration shown (about log 3.5 ng/ml), wild type n = 7, R416A n = 6, parent: est. 104) was 109 % of vehicle.

The record behind these values is PMC6368630.
